Data as given in patent publication US20100086555A1.
Where two headings read alike, the source gives them in different places.

Assays:
[1] = target: H5 HA A/HK/491/97 (on pseudotypes) (influenza A virus A/HK/491/97 (H5N1)); experiment: cell-based or functional assay
[2] = target: H9 HA A/ck/HK/G9/97 (on infectious virus) (influenza A virus A/ck/HK/G9/97 (H9N2)); experiment: cell-based or functional assay
[3] = target: H1 HA A/PR/8/34 (on infectious virus) (influenza A virus A/PR/8/34 (H1N1)) (UniProt P03452); experiment: cell-based or functional assay
[4] = target: H5 HA A/INDO/5/05 (on pseudotypes and on infectious virus) (influenza A virus A/INDO/5/05 (H5N1)); experiment: cell-based or functional assay
[5] = target: H5 HA A/HK/213/03 (on pseudotypes) (influenza A virus A/HK/213/03 (H5N1)); experiment: cell-based or functional assay
[6] = target: H1 HA A/SI/3/06 (on infectious virus) (influenza A virus A/SI/3/06 (H1N1)); experiment: cell-based or functional assay
[7] = target: H1 HA A/NC/20/99 (on infectious virus) (influenza A virus A/NC/20/99 (H1N1)); experiment: cell-based or functional assay
[8] = target: H5 HA A/VN/1194/04 (on pseudotypes) (influenza A virus A/VN/1194/04 (H5N1)); experiment: cell-based or functional assay
[9] = target: H5 HA A/Anhui/1/5 (on pseudotypes) (influenza A virus A/Anhui/1/5 (H5N1)); experiment: cell-based or functional assay
[10] = target: H2 HA A/JP/305/57 (on infectious virus) (influenza A virus A/JP/305/57 (H2N2)) (UniProt P03451); experiment: cell-based or functional assay
[11] = target: H9 HA A/HK/1073/99 (on infectious virus) (influenza A virus A/HK/1073/99 (H9N2)); experiment: cell-based or functional assay
[12] = target: H5 HA A/WS/Mong/244/05 (on pseudotypes) (influenza A virus A/WS/Mong/244/05 (H5N1)); experiment: cell-based or functional assay
[13] = target: H5 HA A/VN/1203/04 (on pseudotypes and on infectious virus) (influenza A virus A/VN/1203/04 (H5N1)); experiment: cell-based or functional assay
[14] = target: recombinant trimeric H5 HA (A/VN/1203/04) (influenza A virus A/VN/1203/04 (H5N1)); experiment: ELISA
[15] = target: H9 HA A/HK/1073/99 (ELISA antigen) (influenza A virus A/HK/1073/99 (H9)); experiment: ELISA
[16] = target: H1 HA A/Texas/3/99 (ELISA antigen) (influenza A virus A/Texas/3/99 (H1)); experiment: ELISA
[17] = target: H5 HA A/INDO/5/05 (ELISA antigen) (influenza A virus A/INDO/5/05 (H5N1)); experiment: ELISA
[18] = target: H1 HA A/SI/3/06 (ELISA antigen) (influenza A virus A/SI/3/06 (H1)); experiment: ELISA
[19] = target: recombinant trimeric H5 HA (A/VN/1203/04) (influenza A virus A/VN/1203/04 (H5N1)); experiment: competition ELISA on recombinant trimeric H5 HA; competitor C179
[20] = target: recombinant trimeric H5 HA (A/VN/1203/04) (influenza A virus A/VN/1203/04 (H5N1)); experiment: competition ELISA on recombinant trimeric H5 HA; competitor FLD21
[21] = target: H3 HA A/WY/3/03 (on infectious virus) (influenza A virus A/WY/3/03 (H3N2)); experiment: cell-based or functional assay
[22] = target: H1 HA A/NJ/76 (on infectious virus) (influenza A virus A/NJ/76 (H1N1)); experiment: cell-based or functional assay
[23] = target: H1 HA A/swine/Iowa/31 (on infectious virus) (influenza A virus A/swine/Iowa/31 (H1N1)); experiment: cell-based or functional assay
[24] = target: H6 HA A/teal/HK/WN312/97 (on infectious virus) (influenza A virus A/teal/HK/W312/97 (H6N1)); experiment: cell-based or functional assay
[25] = target: H1 HA A/CA/07/09 (on infectious virus) (influenza A virus A/CA/07/09 (H1N1)); experiment: cell-based or functional assay
[26] = target: H1 HA A/NJ/76 (on infectious virus) (influenza A virus A/NJ/76 (H1N1)); experiment: cell-based or functional assay; remark: listed apart in the source
[27] = target: H1 HA A/swine/Iowa/31 (on infectious virus) (influenza A virus A/swine/Iowa/31 (H1N1)); experiment: cell-based or functional assay; remark: listed apart in the source
[28] = target: H1 HA A/PR/8/34 (on infectious virus) (influenza A virus A/PR/8/34 (H1N1)) (UniProt P03452); experiment: cell-based or functional assay; remark: listed apart in the source
[29] = target: H1 HA A/CA/07/09 (on infectious virus) (influenza A virus A/CA/07/09 (H1N1)); experiment: cell-based or functional assay; remark: listed apart in the source
[30] = target: H5 HA A/VN/1203/04 (on pseudotypes and on infectious virus) (influenza A virus A/VN/1203/04 (H5N1)); experiment: cell-based or functional assay; remark: listed apart in the source

Row | Binder | Neutralization of HA-pseudotypes (IC90) [1] [µg/mL] | Neutralization of infectious viruses (IC50) [2] [µg/mL] | Neutralization of infectious viruses (IC50) [3] [µg/mL] | Neutralization of HA-pseudotypes (IC90) [4] [µg/mL] | Neutralization of infectious viruses (IC50) [4] [µg/mL] | Neutralization of HA-pseudotypes (IC90) [5] [µg/mL] | Neutralization of infectious viruses (IC50) [6] [µg/mL] | Neutralization of infectious viruses (IC50) [7] [µg/mL] | Neutralization of HA-pseudotypes (IC90) [8] [µg/mL] | Neutralization of HA-pseudotypes (IC90) [9] [µg/mL] | Neutralization of infectious viruses (IC50) [11] [µg/mL] | Neutralization of HA-pseudotypes (IC90) [12] [µg/mL] | Neutralization of HA-pseudotypes (IC90) [13] [µg/mL] | K50 [14] [µg/mL] | K50 [15] [µg/mL] | K50 [16] [µg/mL] | K50 [17] [µg/mL] | K50 [18] [µg/mL] | Competition (%) [19] [%] | Competition (%) [20] [%] | other results
1 | FB139 (antibody, V domains shown) VH: QVQLVQSGAEVKKAGSSVKVSCQSSGVTFSMYAVSWVRQAPGQGLEWMGGIIPLFGTTTYAQKFEGRLTITADTSTNMAYLELRSLRSEDTAVYFCARAGTTVTRFNWFDPWGQGTLVTVSS VL: EVVLTQSPGTLSLSPGQRATLSCRASQSVSSSYLAWYQQKPGQAPRLLIYDASNRATGIPDRFSGSGSGTDFTLTISRLEPEDFAVYYCQQYGSSPYTFGQGTKLEIK | 0.019 | 6 | 5 | 0.106 | 36 | 0.019 | 4 | 36 | 0.04 | 0.022 | 20 | 0.035 | 0.034 | 0.033 | 0.066 | 0.06 | 0.163 | 1.38 | 100 | < 20 | Neutralization of infectious viruses (IC50) [10]: 50 µg/mL; Neutralization of infectious viruses (IC50) [13]: 36 µg/mL
2 | FE53 (antibody, V domains shown) VH: QVQLVQSGAEVKKPGSSVKVSCKASGVTSSNYPITWVRQAPGQGLEWMGGVLPLFGVTNYAQKFQGRVTISADKSTNTAYMELSSLRSEDTAVYYCARGKRPGYCSGGVCSSDYWGQGTLVTVSS VL: DIQMTQSPSSLSASVGDRVSITCQASQDISRYLNWYQQKPGEAPKLLIYDASNLETGVPSRFSGSGSGTDFTFTISSLQPEDIATYFCQQYGYLPLTFGPGTKVDSK | 0.046 | 2 |  | 0.491 |  | 0.066 | 6 | 37 | 0.008 | 0.065 | 8 | 0.077 | 0.098 | 0.015 | 0.014 | 0.015 | 0.084 | 0.375 | 100 | < 20 | Neutralization H9N2 IC50 [2]: 0.1 µg/mL; Neutralization H1N1 IC90 [6]: 6.2 µg/mL; Neutralization H1N1 IC90 [7]: 6.2 µg/mL; Neutralization H5pp IC90 [8]: 0.008 µg/mL; Neutralization H3N2 IC50 [21]: > 50 µg/mL; Neutralization H5N1 IC50 [13]: > 50 µg/mL
3 | FE43 (antibody, V domains shown) VH: QVHLVQSGAEVKKPGSSVRLSCSASGGPFSGFAISWLRQAPGQGLEWLGGISAVFGTATYAQKFQGRVTITADQFTSTSHMDLSRLTYDDTAVYYCARSGGYLPQNNWIDPWGQGTLVIVSS VL: DIVMTQTPLSLSVTPGQPASISCKSSQSLLHSDGKTYLYWYLQKPGQSPQLLIYEVSNRFSGVPDRFSGSGSGTDFTLKISRVEAEDVGVYYCMQNILLPLTFGGGTKVEIK | 0.053 | 4 | 4 | 0.39 | 25 | 0.07 | 9 | 40 | 0.061 | 0.137 | 50 | 0.186 | 0.146 | 0.029 | 0.307 | 0.013 | 4.54 | 0.206 | 100 | < 20 | Hemagglutination inhibition titer [22]: < 5; Hemagglutination inhibition titer [23]: 20; Neutralization H9N2 IC50 [2]: 0.02 µg/mL; Hemagglutination inhibition titer [3]: < 5; Neutralization H1N1 IC90 [6]: 6.2 µg/mL; Neutralization of infectious viruses (IC50) [24]: 20 µg/mL; Neutralization H1N1 IC90 [7]: 6.2 µg/mL; Neutralization H5pp IC90 [8]: 0.03 µg/mL; Neutralization H3N2 IC50 [21]: > 50 µg/mL; Hemagglutination inhibition titer [25]: < 5; Hemagglutination inhibition titer [13]: < 5; Neutralization H5N1 IC50 [13]: > 50 µg/mL; Neutralization of infectious viruses (IC50) [26]: 9 µg/mL; Neutralization of infectious viruses (IC50) [27]: 3 µg/mL; Neutralization of infectious viruses (IC50) [28]: 1.5 µg/mL; Neutralization of infectious viruses (IC50) [29]: 4 µg/mL; Neutralization of infectious viruses (IC50) [30]: > 50 µg/mL
4 | FC6 (antibody, V domains shown) VH: QGQLVQSGAEVKKSGSSVKVSCKTSGGTFNSHAISWVRQAPGQGLEWIGGIIPMFGTTNYAQKLKGRIAITADQLPTTAYLELSSLRSEDTAVYYCARGQRYYYDRDGMDVWGQGTMVTVSS VL: EIVMTQTPLSLSVTPGQPASISCRSSQSLLHSDGKTYLYWYLQKPGQPPQLLISEVFNRFSGVPDRFSGSGSGTDFTLKISRVEAEDVGVYYCMQSLQLPLTFGGGTKVEIK | 0.081 | 9 | 16 | 0.242 | 31 | 0.077 | 18 | 40 | 0.061 | 0.112 | 36 | 0.073 | 0.096 | 0.157 | 0.15 | 0.066 |  | 1.47 | 100 | < 20 | Neutralization H1N1 IC90 [6]: 12.5 µg/mL; Neutralization of infectious viruses (IC50) [24]: 63 µg/mL; Neutralization H1N1 IC90 [7]: 12.5 µg/mL; Neutralization H5pp IC90 [8]: 0.04 µg/mL
